Experimental data published in patent US8236764.

Tested on: Human FV isolated from plasma
Sequence (chain, as listed by the source): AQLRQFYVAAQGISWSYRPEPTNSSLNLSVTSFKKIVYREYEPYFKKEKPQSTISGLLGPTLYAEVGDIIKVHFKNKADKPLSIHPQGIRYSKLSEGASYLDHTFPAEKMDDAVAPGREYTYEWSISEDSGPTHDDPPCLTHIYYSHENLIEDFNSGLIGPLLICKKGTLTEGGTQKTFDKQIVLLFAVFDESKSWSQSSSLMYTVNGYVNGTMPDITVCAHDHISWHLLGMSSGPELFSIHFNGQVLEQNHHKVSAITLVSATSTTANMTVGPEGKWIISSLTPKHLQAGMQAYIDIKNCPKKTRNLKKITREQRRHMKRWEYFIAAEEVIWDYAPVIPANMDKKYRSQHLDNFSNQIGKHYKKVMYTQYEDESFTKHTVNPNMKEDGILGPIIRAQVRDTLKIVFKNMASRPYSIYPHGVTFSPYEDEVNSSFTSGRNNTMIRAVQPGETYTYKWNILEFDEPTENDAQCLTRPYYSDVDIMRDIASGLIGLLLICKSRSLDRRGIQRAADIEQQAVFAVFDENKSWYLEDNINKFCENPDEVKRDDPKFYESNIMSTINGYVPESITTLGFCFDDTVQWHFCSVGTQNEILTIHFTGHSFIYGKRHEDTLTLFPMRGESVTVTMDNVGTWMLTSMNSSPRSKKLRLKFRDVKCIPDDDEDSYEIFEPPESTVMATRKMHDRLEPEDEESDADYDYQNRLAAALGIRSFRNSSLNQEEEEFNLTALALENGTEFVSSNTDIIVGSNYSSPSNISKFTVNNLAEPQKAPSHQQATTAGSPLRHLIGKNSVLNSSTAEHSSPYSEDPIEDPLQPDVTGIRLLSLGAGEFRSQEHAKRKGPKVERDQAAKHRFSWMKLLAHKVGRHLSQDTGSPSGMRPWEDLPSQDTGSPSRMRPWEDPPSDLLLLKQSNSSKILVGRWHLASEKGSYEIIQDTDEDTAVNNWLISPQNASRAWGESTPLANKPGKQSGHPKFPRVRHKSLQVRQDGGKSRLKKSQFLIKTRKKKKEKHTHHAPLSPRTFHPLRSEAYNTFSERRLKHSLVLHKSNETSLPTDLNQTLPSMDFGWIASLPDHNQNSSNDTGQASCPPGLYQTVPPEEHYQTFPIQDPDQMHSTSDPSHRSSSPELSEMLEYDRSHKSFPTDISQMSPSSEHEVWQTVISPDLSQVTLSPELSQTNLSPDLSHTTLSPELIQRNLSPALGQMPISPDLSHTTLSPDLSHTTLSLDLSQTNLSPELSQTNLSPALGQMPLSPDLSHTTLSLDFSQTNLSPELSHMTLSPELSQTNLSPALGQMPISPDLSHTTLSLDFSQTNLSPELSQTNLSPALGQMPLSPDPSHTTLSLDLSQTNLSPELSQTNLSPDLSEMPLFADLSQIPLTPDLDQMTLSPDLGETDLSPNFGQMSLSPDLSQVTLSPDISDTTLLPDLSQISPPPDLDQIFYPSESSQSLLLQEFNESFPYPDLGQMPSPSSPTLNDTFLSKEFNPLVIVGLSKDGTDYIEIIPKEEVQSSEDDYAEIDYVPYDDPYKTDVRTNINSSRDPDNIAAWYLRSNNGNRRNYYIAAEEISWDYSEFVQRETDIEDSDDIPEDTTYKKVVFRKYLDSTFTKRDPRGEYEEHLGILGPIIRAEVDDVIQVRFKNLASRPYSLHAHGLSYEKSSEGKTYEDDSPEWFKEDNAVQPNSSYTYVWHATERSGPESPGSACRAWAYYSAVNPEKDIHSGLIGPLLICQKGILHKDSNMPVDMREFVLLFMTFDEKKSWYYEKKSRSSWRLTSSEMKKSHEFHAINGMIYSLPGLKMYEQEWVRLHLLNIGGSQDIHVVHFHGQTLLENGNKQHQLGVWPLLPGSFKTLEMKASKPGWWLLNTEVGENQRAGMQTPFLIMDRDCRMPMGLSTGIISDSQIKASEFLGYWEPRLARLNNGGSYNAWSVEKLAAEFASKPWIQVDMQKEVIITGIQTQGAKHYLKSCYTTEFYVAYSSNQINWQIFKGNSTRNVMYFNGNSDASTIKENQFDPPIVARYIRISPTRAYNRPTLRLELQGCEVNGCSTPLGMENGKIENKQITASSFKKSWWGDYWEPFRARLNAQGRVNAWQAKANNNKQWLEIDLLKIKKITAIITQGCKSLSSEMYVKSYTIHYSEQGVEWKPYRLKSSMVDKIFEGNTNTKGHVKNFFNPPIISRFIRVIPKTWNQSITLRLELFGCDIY

Substance	activation of FV (cofactor activity by PT-based assay using FV-deficient plasma; cleavage by SDS-PAGE)
human thrombin	murine thrombin activates human FV in a similar fashion to human thrombin
murine thrombin	murine thrombin activates human FV in a similar fashion to human thrombin
